According to a protein production outcome set (Wang et al. 2014):

Assay: label from the status in PepcDB records

For “MTLAVTAQPALAADRGHSVPLRIATYNIHAGAGSDGVFDLDRQAAALRALDADVIGLQEVDVHWGARSQGLDVAGELARRLGMRVSFAPIYSLDPVTAGEPRREYGVAVLSRFPVRSATNHEITRLSTQDENPLPAPAPGFGEVTLKVRGVPVQVFVTHLDYRADPAVRRAQVADTRRIMARERAELPGAHQFLLGDFNAEPAAPELAPLWKELSDAGAGTPATYPAQAPVKRIDYVTAGKDVRIRRTAVPEEPAASDHRPVVADVSLPRRTPGRD”, the protein production was “failed”.
In the case of “MPLSYLSPSSSEERSDDPSKYDGDFGVPQICFCGKQLDLGWDLAVHEQCFCIDKRFGEHRELIQNAFKFGGDSNRLQINQIRAEIEDLKDRLDKKDAEITRLMDALGKK”, the protein production is reported as “failed”.
In the case of “MKEIVERVKTKTKIPVYERSVENVLSAVLASDDIWRIVDLSEEPLPLVVAILESLNELGYVTFEDGVKLTEKGEELVAEYGIGKRYDFTCPHCQGKTVDLQAFADLLEQFREIVKDRPEPLHEFDQAYVTPETTVARVILMHTRGDLENKDIFVLGDDDLTSIALMLSGLPKRIAVLDIDERLTKFIEKAANEIGYEDIEIFTFDLRKPLPDYALHKFDTFITDPPETLEAIRAFVGRGIATLKGPRCAGYFGITRRESSLDKWREIQKLLLNEFNVVITDIIRNFNEYVNWGYAEETRAWKLIPIKKLPEYNWYKSYMFRIETLEGSRGYEDEIPEEDIYNDEESST”, the protein production is reported as “not failed”.
With “MPFSKNLENLTAPFKRIKNRSLVLALGFLILTFCLLLFLILSDVSRLISGKDFFYVIQSHPKQTLIEDENYFYANKGLYKTNKEAFLRVYKIPESMPIERRENLSKVSKIFLALLFFISSMLFGIFWRLPKRLDTKMSLESAHKNELENAFQRYDALGVRFEDIAGVDEVKEELLEVIDYLKNPKKYQDLGIFLPKGVLLIGPPGVGKTMIAKALASEARVPFFYESGSAFSQIYVGAGAKKVHELFMHAKRHAPSIIFIDEIDALGKARGGHRSDEREATLNQLLTEMDGFLQNDEVVVIGATNQMEVMDEALLRSKRFDRRIFISLPDLLERQSILEKLLENKKHALNYLKIAKICVGFSGAMLATLINESALNALKHQRTEIAESDILEVKDKIAYGKKKPQTLDENQKELVALYQSAKALSAYWLEIEFDKAPILGEFIAFNENKIHSESEIKNYIKVYLSGTIILELLYKERYSLSKQDLQKAKFLNEFMASELLLAPTKESLSVLYEEQLEFLKPQIAACKRLSVLLLEQEYLEHSNLYDLLNG” the protein production was “failed”.
With “MTPELNLKSLGAKTPYIFEYNSQLLEAFPNPNPNLDPLITLECKEFTSLCPITSQPDFGVIFIRYIPKDKMVESKSLKLYLFSYRNHGSFHESCINTILLDLVRLLEPKYLEVYGDFASRGGIAIKPFVNYAIKEYQDFKEKRLLNAK” the protein production was “failed”.
In the case of “MKRRSVLLSGVALSGTALANDSIFFSPLKYLGAEQQRSIDASRSLLDNLIPPSLPQYDNLAGKLARRAVLTSKKLVYVWTENFGNVKGVPMARSVPLGELPNVDWLLKTAGVIVELIVNFVASLPASAAAQFERIATGLSGDLEAARQVHEALLEEAKNDPAAAGSLLLRFTELQTRVIAILTRVGLLVDDILKSASNLVTQRGQGDGLNRFRAVFGTLRLPEVADSFRDDEAFAYWRVAGPNPLLIRRVDALPANFPLGEEQFRRVMGADDSLLEAAASRRLYLLDYAELGKLAPSGAVDKLLTGTGFAYAPIALFALGKDRARLLPVAIQCGQDPATHPMFVRPAESESDLYWGWQMAKTVVQVAEENYHEMFVHLAQTHLVSEAFCLATQRTLAPSHPLHVLLAPHFEGTLFINEGAARILLPSAGFIDVMFAAPIQDTQATAGGNRLGFDFYRGMLPESLKARNVDDPLALPDYPYRDDGLLVWNAIRQWAADYVAVYYASDGDVTADVELAAWVGEVIGSGKVAGFRPITGRSQLVEVLTMVIFTASAQHAAVNFPQPSMMTYAPAICAMSAAPAPDSPSGKSEADWLKMMPPTLVALEKVNIYHLLGSVYHGRLGDYRQTGFPYAPVFSDRRVTASGGPLERFQARLKEVEATIRTRNQARRRPYEYLLPSRIPASTNI”, the protein production is reported as “failed”.
In the case of “MNDTLTLDEVVEFAENPEPRCPCVLLLDTSGSMQGAAIEALNQGLLSLKDELMKNSIAARRVEIAIVTFDSHINVIQDFVTADQFNPPILTAQGLTSMGAGIHKALDMVQERKSLYRANGVAYYRPWVFMITDGEPQGELDHLVEQAALRLQGDEVNKRVAFFSVGVENANMTRLNQIAVRTPLKLKGLNFIEMFVWLSASMSAVSHSQIDEQVALPPIGWGSI”, the protein production is reported as “failed”.
For “MQTNEHEHVIEVTDLRRVYGGGFEAVRGIDFSVRRGEVFALLGTNGAGKTSTVELLEGLAAPAGGRVRVLGHDPYTERAAVRPRTGVMLQEGGFPSELTVAETARMWAGCVSGARPPAEVLALVGLEAKSGTRVKQLSGGQRRRLDLALALLGDPEVLFLDEPSTGLDAEGRRDTWELVGALRDQGTTVLLTTHYLEEAEHLADRLAIMHDGRIAATGTPAEVTAAQPSHISFELPDGYFVGDLPPLAELGVSDHETDGRTVKLRTRELQRAATGLLVWAAQAAVELRRLDVRSASLEEAFLSIAKQVSARSDGTATDTTEKEYAA”, the protein production was “failed”.
With “MSLKIDAVDLFYLSMPEVTDAADGSQDALLVRVAAGGHIGWGECEAAPLPSIAAFVCPKSHGVCRPVSDSVLGQRLDGPDDIARIAALVGYNSMDLLQAPHMLSGIEMALWDLLGRRLSAPAWALLGYSASHGKRPYASLLFGDTPQETLERARAARRDGFAAVKFGWGPIGRGTVAADADQIMAAREGLGPDGDLMVDVGQIFGEDVEAAAARLPTLDAAGVLWLEEPFDAGALAAHAALAGRGARVRIAGGEAAHNFHMAQHLMDYGRIGFIQIDCGRIGGLGPAKRVADAAQARGITYVNHTFTSHLALSASLQPFAGLEADRICEYPAAPQQLALDITGDHIRPDAEGLIRAPEAPGLGLQVAASALRRYLVETEIRIGGQLIYRTPQLEGHHHHHH” the protein production was “not failed”.
For “MRDYVEIGMGREARRTYHLDSVAIVPSRRTRSSKDVDTTWHIDAYTFDIPFMSHPTDALATPDFVIEMDKQGGLGVINAEGLWGRHADLDAAIQEVITAYGDDELDLGSCNRATKKLQELHAAALDTELLVERIAQVRSSGAT”, the protein production was “failed”.
For “MFVNQHGYSFGLSCALDGLSKREKDAQRQNKLLELGLLTNRNSTFFEEATQTLARNLGLPICLVGLMVEDEINIVSAVGIYRLGVGNPNLVSRQISRNDAYCTLVVDSAMPLMITDALAEPFFAEGELYQRYGIRSYLGTPLLTRDGVCLGTLAALDFSPHDFREPDVALMNMTARWCMGEIEH”, the protein production was “failed”.
With “MSLQPKLLLVLKGDSNAYWRQVYLGAQKAADEAGVTLLHRSTKDDGDIAGQIQILSYHLSQAPPDALILAPNSAEDLTPSVAQYRARNIPVLVVDSDLAGDAHQGLVATDNYAAGQLAARALLATLDLSKERNIALLRLRAGNASTDQREQGFLDVLRKHDKIRIIAAPYAGDDRGAARSEMLRLLKETPTIDGLFTPNESTTIGALVAIRQSGMSKQFGFIGFDQTEELEAAMYAGEISNLVVQNPEYMGYLAVQRALDLVRGKPIPAFTDTGVRLLQEGHHHHHH” the protein production was “not failed”.
For “MKEARKRMVKRAVQEIKDGMNVNLGIGMPTLVANEIPDGVHVMLQSENGLLGIGPYPLEGTEDADLINAGKETITEVTGASYFDSAESFAMIRGGHIDLAILGGMEVSEQGDLANWMIPGKMVKGMGGAMDLVNGAKRIVVIMEHVNKHGESKVKKTCSLPLTGQKVVHRLITDLAVFDFVNGRMTLTELQDGVTIEEVYEKTEADFAVSQSVLNS”, the protein production was “not failed”.
For “MKTAQHETISNREFYFVLYMMLLYVTGWVIDVNGLFLSSYFNLAGEIMLPLVGGIVGLFIMSVNKQQTK”, the protein production was “failed”.
With “MMNDSKARYGSITRFFHWSMAILVSWQFLKFFDRINDGEHWVGETLVPWHISIGSLILVLIVLRLGWTVKEKGNRPEHGSIIGVLAKIGHGLLYVALVLMPVTGIFYMVGNGYGLSAFNLEIIAKGEEVSWLINIGSLHSYIAWGLLFLVAGHIGMAFVHQFIIKDGTLKRMM” the protein production was “failed”.
With “MGQLPPRARAFFAAQRPLRVLMPGCGSAADLPPLLAMGHDVLAVDFSEAAIELAARQWPEAAGRLLLADFFQLQMPAFDCLFERAFLCALPVGMRSQYAERVAALIAPGGALAGVFFVADTERGPPFGMQAEALRELLSPWFELEEDLALDESVAVFRNRERWMVWRRRGLEHHHHHH” the protein production was “failed”.
For “MKVDREKYGSEKIAKLKILEELKKENPNKKIIAIGNGNNDELLLKNADLGICVIGDEGAWSKTILSSDIVVKDINDALDLLLNENRLKATSRD”, the protein production was “failed”.
In the case of “MFNAGNRIINTWLYPIQDGFVLIDTGYENGFKHFKKRISKFNIKIKDIRYIFLTHAHDDHVGFLNQILDESPNTKIVMHDKALEILYKGQNSFIGGCTSRTAFLFCQIMKLFGKGEHSFSPLKQEFEKRCILVSDKNRKEIEKELNGKIIDTPGHTDDSISLLIDDGVLFCGDSAMNGFPSTHKITIFAESKLEFIQSWKTIINTKPKMIYPGHGKPFEYSKLEQNLIYVNKINLYPLHNSKDIHRFL”, the protein production is reported as “failed”.
With “MIVFYDSWCPMCTAVAERTKKLDKKGKVKFVSFRDEDVVEKYELSQELQSKMEQRLYIFKNNKWYDGIHSIHVLAKSIPSYWFAVPFIKLSIVLGFGNKVYDYIANNRKLVPVGHCRGGVCEIPTKK” the protein production was “failed”.
With “SLSLRPSPRLLCTATKQKNSGQNLEEDMGQSEQKADPPATEKTLLEEKVKLEEQLKETVEKYKRALADTENLRQRSQKLVEEAKLYGIQAFCKDLLEVADVLEKATQCVPKEEIKDDNPHLKNLYEGLVMTEVQIQKVFTKHGLLKLNPVGAKFDPYEHEALFHTPVEGKEPGTVALVSKVGYKLHGRTLRPALVGVVKEA” the protein production was “not failed”.
In the case of “VPLEARMKQFKDMLLERGVSAFSTWEKELHKIVFDPRYLLLNPKERKQVFDQYV”, the protein production is reported as “failed”.
For “MLEKELSFADLSISLSELYEAMGYADAVPDEAVEKEVRGVLGRVEAVTSPRFCFFISGGELDESKDSLSVGDTCFSIGKIITRQLRGSESFAFFAATAGTGFERFQHTLQQEGDMVKVYIADAIGSVIAEKTADCMEIALDEYIRDRGWRHTNRFSPGYCGWHVSEQKKLFPLFPSAEPCGIRLTDSGLMLPIKSVSGVIGLGDGVRKLEYTCGLCTYDRCYRRKQRGLEHHHHHH”, the protein production was “not failed”.
With “MAEDKTKPSELDQGKYDADDNVKIICLGDSAVGKSKLMERFLMDGFQPQQLSTYALTLYKHTATVDGRTILVDFWDTAGQERFQSMHASYYHKAHACIMVFDVQRKVTYRNLSTWYTELREFRPEIPCIVVANKIDADINVTQKSFNFAKKFSLPLYFVSAADGTNVVKLFNDAIRLAVSYKQNSQDFMDEIFQELENFSLEQEEEDVPDQEQSSSIETPSEEAASPHS” the protein production was “not failed”.
In the case of “SSAHMSGLEIMDEDQLIKDVLDKFLNCHEQTYDEEFLNTFTHLSQDLLLLPGEVEQDVSTSIPSCIPFVAQPPTCEVKPKPSVKRMDKQTEEILGDEVQLFSLDEEFDYDNVMLTSKFSPAEIENIKELCKQQKRKDTSPDLEKSCD”, the protein production is reported as “failed”.
For “MGIHQYFQSLSDLENIYRCPGKFKYQEHSVAEHSYKVTSIAQFFGAVEEDAGNEVNWRALYEKALNHDYSELFIGDIKTPVKYATTELREMLSEVEESMTKNFISREIPATFQPIYRHLLKEGKDSTLEGKILAISDKVDLLYESFGEIQKGNPENIFVEIYSEALATIYEYREMASVKYFLKEILPDMLAEKGIEKTELPQLTTEITTKALRDE”, the protein production was “not failed”.
In the case of “MPSSFNVESADGYERLMGRWSRKLAPMLIDFAGLADGDRVLDVGCGTGSLAFTLAETSGLQEIAAVDYSPVFVEAATRRNTDPRVSIRQADACALPFEDDRFDRAMSLLVLHFVPEAGKAVSEMRRVVRPGGVVAAAVWDHYGGMSGMRMMWDTVAMLDEGALPLRRKYCFQPMMRPGEMKESFIAQGLADVEETSLLIRMEYVSFADYWEPIAAGEGPLGKYVAGLDPAKRKAVDAAMRAAYEAGEPDGPRSFAAVAWACRGRVPGQS”, the protein production is reported as “failed”.
